{"source": "paper PMC8223116", "about": "“A novel G-quadruplex aptamer-based spike trimeric antigen test for the detection of SARS-CoV-2”", "target": "SARS-CoV-2 spike RBD (SARS-CoV-2, UniProt P0DTC2 319-541)", "assay": "ALISA", "data": [{"binder": "TCGTTGGTGGCGGCGTGCCCGGGGCACGGGGACGTCTCGCACGGC (ssDNA)", "note": "[S13 truncated (45-mer)]", "values": [{"measurement": "binding result", "value": "no binding"}]}, {"binder": "TGGGAGCCTGGGACATAGTGGGGAAAGAGGGGAAGAGTGGGTCT (structured_DNA)", "note": "[S14 truncated (44-mer)]", "values": [{"measurement": "binding result", "value": "no binding"}]}]}
